T1: FcγRIIb extracellular domain with C-terminal His tag (human, UniProt P31994 43-217)
T1 construct: extracellular domain; also called FcgRIIb; 2b; not shown: His tag at the C terminus
T1 sequence (looked up): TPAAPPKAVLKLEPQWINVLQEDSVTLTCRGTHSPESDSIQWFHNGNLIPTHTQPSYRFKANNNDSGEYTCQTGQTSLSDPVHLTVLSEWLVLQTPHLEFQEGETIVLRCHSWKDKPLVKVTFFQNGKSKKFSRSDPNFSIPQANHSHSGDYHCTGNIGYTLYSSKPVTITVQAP

T2: FcγRIIa H (human, UniProt P12318 34-217)
T2 construct: extracellular domain; also called FcgRIIa H type; 2aH
T2 sequence (looked up): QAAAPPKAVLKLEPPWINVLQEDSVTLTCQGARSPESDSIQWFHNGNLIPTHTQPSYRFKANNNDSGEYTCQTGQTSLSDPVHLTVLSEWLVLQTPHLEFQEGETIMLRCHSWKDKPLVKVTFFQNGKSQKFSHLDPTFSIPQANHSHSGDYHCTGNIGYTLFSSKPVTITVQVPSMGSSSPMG

T3: FcγRIIb (human, UniProt P31994 43-217)
T3 construct: extracellular domain; also called FcgRIIb; 2b
T3 sequence (looked up): T1 sequence (looked up)

B1: GpH7-A5/GpH7-B3 variant I336_02A/GpL16-k0 (antibody, human IgG1, kappa)
heavy 1: not shown
heavy 2: not shown
light: DIVMTQSPLSLPVTPGEPASISCQASESLVHSNRNTYLHWYLQKPGQSPQLLIYKVSNRFSGVPDRFSGSGSGTDFTLKISRVEAEDVGVYYCSQNTHVPPTFGQGTKVEIERTVAAPSVFIFPPSDEQLKSGTASVVCLLNNFYPREAKVQWKVDNALQSGNSQESVTEQDSKDSTYSLSSTLTLSKADYEKHKVYACEVTHQGLSSPVTKSFNRGEC
notes: He Ab: the mutation stands only in the GpH7-B3-derived H chain; also called He Ab I336A
B2: GpH7-A5/GpH7-B3 variant T335_06M/GpL16-k0 (antibody, human IgG1, kappa)
heavy 1: not shown
heavy 2: not shown
light: B1 light
notes: He Ab: the mutation stands only in the GpH7-B3-derived H chain; also called He Ab T335M
B3: GpH7-A5/GpH7-B3 variant I336_18N/GpL16-k0 (antibody, human IgG1, kappa)
heavy 1: not shown
heavy 2: not shown
light: B1 light
notes: He Ab: the mutation stands only in the GpH7-B3-derived H chain; also called He Ab I336N
B4: GpH7-A5/GpH7-B3 variant K334_01G/GpL16-k0 (antibody, human IgG1, kappa)
heavy 1: not shown
heavy 2: not shown
light: B1 light
notes: He Ab: the mutation stands only in the GpH7-B3-derived H chain; also called He Ab K334G
B5: GpH7-A5/GpH7-B3 variant I336_09D/GpL16-k0 (antibody, human IgG1, kappa)
heavy 1: not shown
heavy 2: not shown
light: B1 light
notes: He Ab: the mutation stands only in the GpH7-B3-derived H chain; also called He Ab I336D
B6: GpH7-A5/GpH7-B3 variant I336_13S/GpL16-k0 (antibody, human IgG1, kappa)
heavy 1: not shown
heavy 2: not shown
light: B1 light
notes: He Ab: the mutation stands only in the GpH7-B3-derived H chain; also called He Ab I336S
B7: GpH7-A5/GpH7-B3 variant I336_03V/GpL16-k0 (antibody, human IgG1, kappa)
heavy 1: not shown
heavy 2: not shown
light: B1 light
notes: He Ab: the mutation stands only in the GpH7-B3-derived H chain; also called He Ab I336V
B8: GpH7-A5/GpH7-B3 variant S337_01G/GpL16-k0 (antibody, human IgG1, kappa)
heavy 1: not shown
heavy 2: not shown
light: B1 light
notes: He Ab: the mutation stands only in the GpH7-B3-derived H chain; also called He Ab S337G
B9: GpH7-A5/GpH7-B3 variant I336_14T/GpL16-k0 (antibody, human IgG1, kappa)
heavy 1: not shown
heavy 2: not shown
light: B1 light
notes: He Ab: the mutation stands only in the GpH7-B3-derived H chain; also called He Ab I336T
B10: GpH7-A5/GpH7-B3 variant E333_04F/GpL16-k0 (antibody, human IgG1, kappa)
heavy 1: not shown
heavy 2: not shown
light: B1 light
notes: Heterodimerized anti-glypican-3 IgG1; substitution in only one H chain (the GpH7-B3 chain); also called He Ab
B11: GpH7-A5/GpH7-B3 variant I336_03V/GpL16-k0 (antibody, human IgG1, kappa)
heavy 1: not shown
heavy 2: not shown
light: B1 light
notes: as for B10
B12: GpH7-A5/GpH7-B3 variant I336_18N/GpL16-k0 (antibody, human IgG1, kappa)
heavy 1: not shown
heavy 2: not shown
light: B1 light
notes: as for B10
B13: GpH7-A5/GpH7-B3 variant T335_01G/GpL16-k0 (antibody, human IgG1, kappa)
heavy 1: not shown
heavy 2: not shown
light: B1 light
notes: as for B10
B14: GpH7-A5/GpH7-B3 variant E333_09D/GpL16-k0 (antibody, human IgG1, kappa)
heavy 1: not shown
heavy 2: not shown
light: B1 light
notes: as for B10
B15: GpH7-A5/GpH7-B3 variant I336_10E/GpL16-k0 (antibody, human IgG1, kappa)
heavy 1: not shown
heavy 2: not shown
light: B1 light
notes: as for B10
B16: GpH7-A5/GpH7-B3 variant E333_08L/GpL16-k0 (antibody, human IgG1, kappa)
heavy 1: not shown
heavy 2: not shown
light: B1 light
notes: as for B10
B17: GpH7-A5/GpH7-B3 variant E333_13S/GpL16-k0 (antibody, human IgG1, kappa)
heavy 1: not shown
heavy 2: not shown
light: B1 light
notes: as for B10
B18: GpH7-A5/GpH7-B3 variant E333_14T/GpL16-k0 (antibody, human IgG1, kappa)
heavy 1: not shown
heavy 2: not shown
light: B1 light
notes: as for B10

target: T4, FcγRIIIa extracellular domain with C-terminal His tag (human, UniProt P08637 17-208); assay: SPR (Biacore), antibody captured via antigen peptide, FcγR as analyte; binding relative to GpH7-A5/GpH7-B3/GpL16-k0 = 100
T4 construct: extracellular domain; also called FcgRIIIa; 3a; not shown: His tag at the C terminus
T4 sequence (P08637 17-208): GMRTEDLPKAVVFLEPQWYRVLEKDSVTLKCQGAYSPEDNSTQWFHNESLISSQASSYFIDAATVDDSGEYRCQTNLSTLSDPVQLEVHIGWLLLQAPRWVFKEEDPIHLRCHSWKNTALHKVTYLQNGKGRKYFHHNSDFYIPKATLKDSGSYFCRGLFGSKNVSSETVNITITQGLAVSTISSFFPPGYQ

He/Con_3a	Binder
111 relative (control = 100)	B1
102 relative (control = 100)	B2
104 relative (control = 100)	B3
121 relative (control = 100)	B4
106 relative (control = 100)	B5
102 relative (control = 100)	B6
112 relative (control = 100)	B7
102 relative (control = 100)	B8
108 relative (control = 100)	B9

target: T1, FcγRIIb extracellular domain with …; assay: as above

He/Con_2b	Binder
84.9 relative (control = 100)	B1
99.4 relative (control = 100)	B2
97.6 relative (control = 100)	B3
92.5 relative (control = 100)	B4
92.1 relative (control = 100)	B5
83.7 relative (control = 100)	B6
90.3 relative (control = 100)	B7
92 relative (control = 100)	B8
89.5 relative (control = 100)	B9

target: T2, FcγRIIa H; assay: SPR (Biacore), antibody captured on antigen-peptide chip, FcγR as analyte; binding relative to GpH7-A5/GpH7-B3/GpL16-k0 = 100

He/Con_2aH	Binder
102 % of HeCon Ab	B10
102 % of HeCon Ab	B11
103 % of HeCon Ab	B12
103 % of HeCon Ab	B13
103 % of HeCon Ab	B14
102 % of HeCon Ab	B15
102 % of HeCon Ab	B16
101 % of HeCon Ab	B17
100 % of HeCon Ab	B18

target: T3, FcγRIIb; assay: as above

He/Con_2b	Binder
94.6 % of HeCon Ab	B10
90.3 % of HeCon Ab	B11
97.6 % of HeCon Ab	B12
96.7 % of HeCon Ab	B13
94.3 % of HeCon Ab	B14
89.8 % of HeCon Ab	B15
95 % of HeCon Ab	B16
81.8 % of HeCon Ab	B17
86.1 % of HeCon Ab	B18

From patent US20180155451A1 (published 2018)
